Results from patent US20200292536A1.

How the values were obtained:
[1] = biological target: BCL2 peptide Ac-…-amide (amino acids 41-54 of human BCL2 with linkers) (human); assay: imaging mass cytometry; peptide 2.50E-08 M in core (second core); Ab 1 ug/ml
[2] = biological target: BCL2 peptide Ac-…-amide (amino acids 41-54 of human BCL2 with linkers) (human); assay: imaging mass cytometry; peptide 2.50E-08 M in core; Ab 5 ug/ml
[3] = biological target: BCL2 peptide Ac-…-amide (amino acids 41-54 of human BCL2 with linkers) (human); assay: imaging mass cytometry; peptide 2.50E-07 M in core
[4] = biological target: BCL2 peptide Ac-…-amide (amino acids 41-54 of human BCL2 with linkers) (human); assay: imaging mass cytometry; peptide 2.50E-07 M in core; Ab 1 ug/ml
[5] = biological target: BCL2 peptide Ac-…-amide (amino acids 41-54 of human BCL2 with linkers) (human); assay: imaging mass cytometry; peptide 2.50E-05 M in core; Ab 1 ug/ml
[6] = biological target: BCL2 peptide Ac-…-amide (amino acids 41-54 of human BCL2 with linkers) (human); assay: imaging mass cytometry; peptide 2.50E-06 M in core; Ab 10 ug/ml
[7] = biological target: BCL2 peptide Ac-…-amide (amino acids 41-54 of human BCL2 with linkers) (human); assay: imaging mass cytometry; peptide 2.50E-05 M in core (second core); Ab 5 ug/ml
[8] = biological target: BCL2 peptide Ac-…-amide (amino acids 41-54 of human BCL2 with linkers) (human); assay: imaging mass cytometry; peptide 2.50E-08 M in core; Ab 1 ug/ml
[9] = biological target: BCL2 peptide Ac-…-amide (amino acids 41-54 of human BCL2 with linkers) (human); assay: imaging mass cytometry; peptide 2.50E-07 M in core (second core); Ab 5 ug/ml
[10] = biological target: Bovine serum albumin (BSA; Ultra Pure) (bovine) (UniProt P02769); assay: imaging mass cytometry; no peptide (background core); Ab 10 ug/ml
[11] = biological target: BCL2 peptide Ac-…-amide (amino acids 41-54 of human BCL2 with linkers) (human); assay: imaging mass cytometry; peptide 2.50E-05 M in core (second core); Ab 1 ug/ml
[12] = biological target: BCL2 peptide Ac-…-amide (amino acids 41-54 of human BCL2 with linkers) (human); assay: imaging mass cytometry; peptide 2.50E-06 M in core (second core); Ab 10 ug/ml
[13] = biological target: Bovine serum albumin (BSA; Ultra Pure) (bovine) (UniProt P02769); assay: imaging mass cytometry; no peptide (background core); Ab 1 ug/ml
[14] = biological target: Bovine serum albumin (BSA; Ultra Pure) (bovine) (UniProt P02769); assay: imaging mass cytometry; no peptide (second background core); Ab 10 ug/ml
[15] = biological target: BCL2 peptide Ac-…-amide (amino acids 41-54 of human BCL2 with linkers) (human); assay: imaging mass cytometry; peptide 2.50E-07 M in core (second core); Ab 10 ug/ml
[16] = biological target: BCL2 peptide Ac-…-amide (amino acids 41-54 of human BCL2 with linkers) (human); assay: imaging mass cytometry; peptide 2.50E-08 M in core (second core); Ab 10 ug/ml
[17] = biological target: BCL2 peptide Ac-…-amide (amino acids 41-54 of human BCL2 with linkers) (human); assay: imaging mass cytometry; peptide 2.50E-04 M in core; Ab 1 ug/ml
[18] = biological target: BCL2 peptide Ac-…-amide (amino acids 41-54 of human BCL2 with linkers) (human); assay: imaging mass cytometry; peptide 2.50E-08 M in core (second core); Ab 5 ug/ml
[19] = biological target: BCL2 peptide Ac-…-amide (amino acids 41-54 of human BCL2 with linkers) (human); assay: imaging mass cytometry; peptide 2.50E-04 M in core (second core); Ab 1 ug/ml
[20] = biological target: BCL2 peptide Ac-…-amide (amino acids 41-54 of human BCL2 with linkers) (human); assay: imaging mass cytometry; peptide 2.50E-06 M in core; Ab 1 ug/ml
[21] = biological target: BCL2 peptide Ac-…-amide (amino acids 41-54 of human BCL2 with linkers) (human); assay: imaging mass cytometry; peptide 2.50E-07 M in core (second core); Ab 1 ug/ml
[22] = biological target: BCL2 peptide Ac-…-amide (amino acids 41-54 of human BCL2 with linkers) (human); assay: imaging mass cytometry; peptide 2.50E-08 M in core; Ab 10 ug/ml
[23] = biological target: BCL2 peptide Ac-…-amide (amino acids 41-54 of human BCL2 with linkers) (human); assay: imaging mass cytometry; peptide 2.50E-06 M in core; Ab 5 ug/ml
[24] = biological target: BCL2 peptide Ac-…-amide (amino acids 41-54 of human BCL2 with linkers) (human); assay: imaging mass cytometry; peptide 2.50E-04 M in core; Ab 10 ug/ml
[25] = biological target: BCL2 peptide Ac-…-amide (amino acids 41-54 of human BCL2 with linkers) (human); assay: imaging mass cytometry; peptide 2.50E-04 M in core (second core); Ab 10 ug/ml
[26] = biological target: BCL2 peptide Ac-…-amide (amino acids 41-54 of human BCL2 with linkers) (human); assay: imaging mass cytometry; peptide 2.50E-05 M in core; Ab 5 ug/ml
[27] = biological target: Bovine serum albumin (BSA; Ultra Pure) (bovine) (UniProt P02769); assay: imaging mass cytometry; no peptide (second background core); Ab 5 ug/ml
[28] = biological target: BCL2 peptide Ac-…-amide (amino acids 41-54 of human BCL2 with linkers) (human); assay: imaging mass cytometry; peptide 2.50E-04 M in core (second core); Ab 5 ug/ml
[29] = biological target: BCL2 peptide Ac-…-amide (amino acids 41-54 of human BCL2 with linkers) (human); assay: imaging mass cytometry; peptide 2.50E-04 M in core
[30] = biological target: Bovine serum albumin (BSA; Ultra Pure) (bovine) (UniProt P02769); assay: imaging mass cytometry; no peptide (background cores)
[31] = biological target: BCL2 peptide Ac-…-amide (amino acids 41-54 of human BCL2 with linkers) (human); assay: imaging mass cytometry; peptide 2.50E-07 M in core; Ab 10 ug/ml

Sequence of BCL2 peptide Ac-…-amide (amino acids 41-54 of human BCL2 with linkers) (human) (peptide, as listed by the source): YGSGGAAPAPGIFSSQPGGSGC
Sequence of UniProt P02769 (P02769 25-607 limits assumed): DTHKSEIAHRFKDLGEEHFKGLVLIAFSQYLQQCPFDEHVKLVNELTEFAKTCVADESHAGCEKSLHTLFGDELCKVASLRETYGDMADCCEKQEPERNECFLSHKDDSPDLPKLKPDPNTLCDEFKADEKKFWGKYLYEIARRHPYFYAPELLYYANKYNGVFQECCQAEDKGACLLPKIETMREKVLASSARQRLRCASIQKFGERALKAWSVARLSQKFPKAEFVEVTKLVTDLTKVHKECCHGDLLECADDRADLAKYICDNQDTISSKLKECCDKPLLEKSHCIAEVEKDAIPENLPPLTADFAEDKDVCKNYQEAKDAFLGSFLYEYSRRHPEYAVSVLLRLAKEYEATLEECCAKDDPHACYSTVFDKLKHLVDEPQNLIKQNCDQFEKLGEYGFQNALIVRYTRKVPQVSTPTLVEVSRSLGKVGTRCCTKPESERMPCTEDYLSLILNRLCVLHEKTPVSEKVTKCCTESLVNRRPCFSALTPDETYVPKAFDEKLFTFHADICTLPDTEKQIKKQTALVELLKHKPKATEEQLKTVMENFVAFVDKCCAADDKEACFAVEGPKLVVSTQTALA

Fluidigm EPR17509-^146Nd antibody was tested, and the Integrated Ion counts (per 150 micron square ROI) [1] was 1410 ion counts, the Integrated Ion counts (per 150 micron square ROI) [2] was 976 ion counts and the Average Ion count [3] was 1740 ion counts. For the same substance, the Ion count above background [3] was 562 ion counts, the Moles ^146Nd Ab detected per ROI [3] was 3.15e-19 mol and the ^146Nd Ab/peptide [3] was 1.4%. For the same substance, the Integrated Ion counts (per 150 micron square ROI) [4] was 1580 ion counts, the Integrated Ion counts (per 150 micron square ROI) [5] was 32400 ion counts and the Integrated Ion counts (per 150 micron square ROI) [6] was 789000 ion counts. For the same substance, the Integrated Ion counts (per 150 micron square ROI) [7] was 15100 ion counts, the Integrated Ion counts (per 150 micron square ROI) [8] was 1450 ion counts and the Integrated Ion counts (per 150 micron square ROI) [9] was 1400 ion counts. It also gave an Integrated Ion counts (per 150 micron square ROI) [10] of 979 ion counts, an Integrated Ion counts (per 150 micron square ROI) [11] of 43900 ion counts and an Integrated Ion counts (per 150 micron square ROI) [12] of 3910 ion counts. For the same substance, the Integrated Ion counts (per 150 micron square ROI) [13] was 1350 ion counts, the Integrated Ion counts (per 150 micron square ROI) [14] was 1160 ion counts and the Integrated Ion counts (per 150 micron square ROI) [15] was 1760 ion counts. For the same substance, the Integrated Ion counts (per 150 micron square ROI) [16] was 1720 ion counts, the Integrated Ion counts (per 150 micron square ROI) [17] was 59300 ion counts and the Integrated Ion counts (per 150 micron square ROI) [18] was 2070 ion counts. It also gave an Integrated Ion counts (per 150 micron square ROI) [19] of 42200 ion counts, an Integrated Ion counts (per 150 micron square ROI) [20] of 7750 ion counts and an Integrated Ion counts (per 150 micron square ROI) [21] of 2380 ion counts. For the same substance, the Integrated Ion counts (per 150 micron square ROI) [22] was 1230 ion counts, the Integrated Ion counts (per 150 micron square ROI) [23] was 4290 ion counts and the Integrated Ion counts (per 150 micron square ROI) [24] was 87400 ion counts. The Integrated Ion counts (per 150 micron square ROI) [25] was 880000 ion counts, the Integrated Ion counts (per 150 micron square ROI) [26] was 16600 ion counts and the Integrated Ion counts (per 150 micron square ROI) [27] was 2380 ion counts. The Integrated Ion counts (per 150 micron square ROI) [28] was 37400 ion counts, the Average Ion count [29] was 58300 ion counts and the Ion count above background [29] was 56900 ion counts. It also gave a Moles ^146Nd Ab detected per ROI [29] of 3.2e-17 mol, a ^146Nd Ab/peptide [29] of 0.14% and an Average Ion count [30] of 1280 ion counts. The Integrated Ion counts (per 150 micron square ROI) [31] was 1550 ion counts.
